Laboratory results published in paper PMC11081498.

What was measured:
[1] = molecular target: Giardia lamblia virus strain GLV-HP capsid protein (Giardia lamblia virus (strain GLV-HP)); assay: cryo-EM structure; single-particle analysis of purified virions plunge-frozen on holey carbon grids; 300-kV Titan Krios; icosahedral symmetry imposed; atomic models of CP-A and CP-B built into the maps
[2] = molecular target: Giardia lamblia virus strain GLV-CAT capsid protein (Giardia lamblia virus (strain GLV-CAT)); assay: as above

Substance | stoichiometry N (CP dimers (CP-A and CP-B) in the capsid) [1] | stoichiometry N (CP dimers (CP-A and CP-B) in the capsid) [2]
Giardia lamblia virus strain GLV-HP capsid protein (natural protein) | 60 | 
Giardia lamblia virus strain GLV-CAT capsid protein (natural protein) |  | 60
